Positions count from the first letter of the chain named.
B1: UGT76G1var17: UGT76G1 variant, mutations F265L_Q266E_Q342K (protein, UniProt Q6VAB4 1-458, looked up, variant F265L Q266E Q342K)
UDP-glycosyltransferase 76G1: MENKTETTVRRRRRIILFPVPFQGHINPILQLANVLYSKGFSITIFHTNFNKPKTSNYPHFTFRFILDNDPQDERISNLPTHGPLAGMRIPIINEHGADELRRELELLMLASEEDEEVSCLITDALWYFAQSVADSLNLRRLVLMTSSLFNFHAHVSLPQFDELGYLDPDDKTRLEEQASGFPMLKVKDIKSAYSNWQILKEILGKMIKQTKASSGVIWNSFKELEESELETVIREIPAPSFLIPLPKHLTASSSSLLDHDRTVLEWLDQQPPSSVLYVSFGSTSEVDEKDFLEIARGLVDSKQSFLWVVRPGFVKGSTWVEPLPDGFLGERGRIVKWVPQKEVLAHGAIGAFWTHSGWNSTLESVCEGVPMIFSDFGLDQPLNARYMSDVLKVGVYLENGWERGEIANAIRRVMVDEEGEYIRQNARVLKQKADVSLMKGGSSYESLESLVSYISSL
B2: UGT76G1var41: UGT76G1 variant, mutations L246F_A385T_K393G (protein, UniProt Q6VAB4 1-458, looked up, variant L246F A385T K393G)
UDP-glycosyltransferase 76G1: B1 UDP-glycosyltransferase 76G1 with L246F, L265F, E266Q, K342Q, A385T, K393G
B3: UGT76G1var44: UGT76G1 variant, mutations I335V_S375R_I407V (protein, UniProt Q6VAB4 1-458, looked up, variant I335V S375R I407V)
UDP-glycosyltransferase 76G1: B1 UDP-glycosyltransferase 76G1 with L265F, E266Q, I335V, K342Q, S375R, I407V
B4: UGT76G1var31: UGT76G1 variant, mutations E224D_L243P_V300A (protein, UniProt Q6VAB4 1-458, looked up, variant E224D L243P V300A)
UDP-glycosyltransferase 76G1: B1 UDP-glycosyltransferase 76G1 with E224D, L243P, L265F, E266Q, V300A, K342Q
B5: UGT76G1var1: UGT76G1 variant, mutations E224A_F314S_R334K (protein, UniProt Q6VAB4 1-458, looked up, variant E224A F314S R334K)
UDP-glycosyltransferase 76G1: B1 UDP-glycosyltransferase 76G1 with E224A, L265F, E266Q, F314S, R334K, K342Q
B6: UGT76G1var22: UGT76G1 variant, mutations E231A_V310I_R334K (protein, UniProt Q6VAB4 1-458, looked up, variant E231A V310I R334K)
UDP-glycosyltransferase 76G1: B1 UDP-glycosyltransferase 76G1 with E231A, L265F, E266Q, V310I, R334K, K342Q
B7: UGT76G1var21: UGT76G1 variant, mutations A239V_V300A_K303G (protein, UniProt Q6VAB4 1-458, looked up, variant A239V V300A K303G)
UDP-glycosyltransferase 76G1: B1 UDP-glycosyltransferase 76G1 with A239V, L265F, E266Q, V300A, K303G, K342Q
B8: UGT76G1var40: UGT76G1 variant, mutations T263S_Q266E_S375R (protein, UniProt Q6VAB4 1-458, looked up, variant T263S Q266E S375R)
UDP-glycosyltransferase 76G1: B1 UDP-glycosyltransferase 76G1 with T263S, L265F, K342Q, S375R
B9: UGT76G1var42: UGT76G1 variant, mutations T263S_Q266S_R334H (protein, UniProt Q6VAB4 1-458, looked up, variant T263S Q266S R334H)
UDP-glycosyltransferase 76G1: B1 UDP-glycosyltransferase 76G1 with T263S, L265F, E266S, R334H, K342Q
B10: UGT76G1var28: UGT76G1 variant, mutations L243A_S274G_P382M (protein, UniProt Q6VAB4 1-458, looked up, variant L243A S274G P382M)
UDP-glycosyltransferase 76G1: B1 UDP-glycosyltransferase 76G1 with L243A, L265F, E266Q, S274G, K342Q, P382M
B11: UGT76G1var35: UGT76G1 variant, mutations T284L_F314S_S357N (protein, UniProt Q6VAB4 1-458, looked up, variant T284L F314S S357N)
UDP-glycosyltransferase 76G1: B1 UDP-glycosyltransferase 76G1 with L265F, E266Q, T284L, F314S, K342Q, S357N
B12: UGT76G1var33: UGT76G1 variant, mutations A33G_R334H_Y397Q (protein, UniProt Q6VAB4 1-458, looked up, variant A33G R334H Y397Q)
UDP-glycosyltransferase 76G1: B1 UDP-glycosyltransferase 76G1 with A33G, L265F, E266Q, R334H, K342Q, Y397Q
B13: UGT76G1var23: UGT76G1 variant, mutations T263S_G348P_A352G (protein, UniProt Q6VAB4 1-458, looked up, variant T263S G348P A352G)
UDP-glycosyltransferase 76G1: B1 UDP-glycosyltransferase 76G1 with T263S, L265F, E266Q, K342Q, G348P, A352G
B14: UGT76G1var46: UGT76G1 variant, mutations F22L_Q266E_I295M (protein, UniProt Q6VAB4 1-458, looked up, variant F22L Q266E I295M)
UDP-glycosyltransferase 76G1: B1 UDP-glycosyltransferase 76G1 with F22L, L265F, I295M, K342Q
B15: UGT76G1var24: UGT76G1 variant, mutations A239I_P272A_Q425E (protein, UniProt Q6VAB4 1-458, looked up, variant A239I P272A Q425E)
UDP-glycosyltransferase 76G1: B1 UDP-glycosyltransferase 76G1 with A239I, L265F, E266Q, P272A, K342Q, Q425E
B16: UGT76G1var38: UGT76G1 variant, mutations F41L_I295M_F377C (protein, UniProt Q6VAB4 1-458, looked up, variant F41L I295M F377C)
UDP-glycosyltransferase 76G1: B1 UDP-glycosyltransferase 76G1 with F41L, L265F, E266Q, I295M, K342Q, F377C
B17: UGT76G1var45: UGT76G1 variant, mutations V279I_D301N_S389E (protein, UniProt Q6VAB4 1-458, looked up, variant V279I D301N S389E)
UDP-glycosyltransferase 76G1: B1 UDP-glycosyltransferase 76G1 with L265F, E266Q, V279I, D301N, K342Q, S389E
B18: UGT76G1var29: UGT76G1 variant, mutations F22Y_V279I_N409R (protein, UniProt Q6VAB4 1-458, looked up, variant F22Y V279I N409R)
UDP-glycosyltransferase 76G1: B1 UDP-glycosyltransferase 76G1 with F22Y, L265F, E266Q, V279I, K342Q, N409R
B19: UGT76G1var26: UGT76G1 variant, mutations S241I_F265L_F377C (protein, UniProt Q6VAB4 1-458, looked up, variant S241I F265L F377C)
UDP-glycosyltransferase 76G1: B1 UDP-glycosyltransferase 76G1 with S241I, E266Q, K342Q, F377C
B20: UGT76G1var39: UGT76G1 variant, mutations F22Y_F41L_V366I (protein, UniProt Q6VAB4 1-458, looked up, variant F22Y F41L V366I)
UDP-glycosyltransferase 76G1: B1 UDP-glycosyltransferase 76G1 with F22Y, F41L, L265F, E266Q, K342Q, V366I
B21: UGT76G1var34: UGT76G1 variant, mutations I43V_T284I_I295T (protein, UniProt Q6VAB4 1-458, looked up, variant I43V T284I I295T)
UDP-glycosyltransferase 76G1: B1 UDP-glycosyltransferase 76G1 with I43V, L265F, E266Q, T284I, I295T, K342Q
B22: UGT76G1var32: UGT76G1 variant, mutations A239V_L243A_S375M (protein, UniProt Q6VAB4 1-458, looked up, variant A239V L243A S375M)
UDP-glycosyltransferase 76G1: B1 UDP-glycosyltransferase 76G1 with A239V, L243A, L265F, E266Q, K342Q, S375M
B23: UGT76G1var27: UGT76G1 variant, mutations A239I_L379A_V394I (protein, UniProt Q6VAB4 1-458, looked up, variant A239I L379A V394I)
UDP-glycosyltransferase 76G1: B1 UDP-glycosyltransferase 76G1 with A239I, L265F, E266Q, K342Q, L379A, V394I
B24: UGT76G1var20: UGT76G1 variant, mutations S375M_K393G_Y397E (protein, UniProt Q6VAB4 1-458, looked up, variant S375M K393G Y397E)
UDP-glycosyltransferase 76G1: B1 UDP-glycosyltransferase 76G1 with L265F, E266Q, K342Q, S375M, K393G, Y397E
B25: UGT76G1var43: UGT76G1 variant, mutations S241I_P272A_V279I (protein, UniProt Q6VAB4 1-458, looked up, variant S241I P272A V279I)
UDP-glycosyltransferase 76G1: B1 UDP-glycosyltransferase 76G1 with S241I, L265F, E266Q, P272A, V279I, K342Q
B26: UGT76G1var36: UGT76G1 variant, mutations F265L_L379A_V396F (protein, UniProt Q6VAB4 1-458, looked up, variant F265L L379A V396F)
UDP-glycosyltransferase 76G1: B1 UDP-glycosyltransferase 76G1 with E266Q, K342Q, L379A, V396F
B27: UGT76G1var30: UGT76G1 variant, mutations I43V_E224A_S241I (protein, UniProt Q6VAB4 1-458, looked up, variant I43V E224A S241I)
UDP-glycosyltransferase 76G1: B1 UDP-glycosyltransferase 76G1 with I43V, E224A, S241I, L265F, E266Q, K342Q
B28: UGT76G1var37: UGT76G1 variant, mutations E229A_L379G_I407V (protein, UniProt Q6VAB4 1-458, looked up, variant E229A L379G I407V)
UDP-glycosyltransferase 76G1: B1 UDP-glycosyltransferase 76G1 with E229A, L265F, E266Q, K342Q, L379G, I407V
B29: UGT76G1var19: UGT76G1 variant, mutations E224D_E229A_Q432E (protein, UniProt Q6VAB4 1-458, looked up, variant E224D E229A Q432E)
UDP-glycosyltransferase 76G1: B1 UDP-glycosyltransferase 76G1 with E224D, E229A, L265F, E266Q, K342Q, Q432E
B30: UGT76G1var25: UGT76G1 variant, mutations T284L_Q342K_Y397Q (protein, UniProt Q6VAB4 1-458, looked up, variant T284L Q342K Y397Q)
UDP-glycosyltransferase 76G1: B1 UDP-glycosyltransferase 76G1 with L265F, E266Q, T284L, Y397Q
B31: UGT76G1var18: UGT76G1 variant, mutations L243P_S274G_N409R (protein, UniProt Q6VAB4 1-458, looked up, variant L243P S274G N409R)
UDP-glycosyltransferase 76G1: B1 UDP-glycosyltransferase 76G1 with L243P, L265F, E266Q, S274G, K342Q, N409R

Assay: Directed evolution of UGT76G1, Rebaudioside D to Rebaudioside M, round 1 (Example 26)
Assay type: biochemical
Details: 100 μL fresh lysate, 0.5 mM Rebaudioside D, 30° C., pH 7.2
Protocol: Lysis was performed by addition of Bugbuster® Master mix (Novagen®) to the thawed cells and the lysate was recovered by centrifugation. Activity tests were performed with 100 μL of fresh lysate that was added to a solution of Rebaudioside D (final concentration 0.5 mM), MgCl2 (final concentration 3 mM) and UDP-Glucose (final concentration 2.5 mM) in 50 mM phosphate buffer pH 7.2.
The reaction was allowed to run at 30° C. and samples were taken after 2, 4, 7 and 24 h. to determine conversion and initial rate by HPLC (CAD detection) using the analytical method that was described above for the transformation of Rebaudioside D to Rebaudioside M. The results are depicted in the following table.

Molecule	conversion Reb D to Reb M after 24 h	initial rate
B1	0.7%	7.2E+05 Reb M area/min
B2	0.8%	1.4E+06 Reb M area/min
B3		2.3E+07 Reb M area/min
B4	0.4%	2.4E+05 Reb M area/min
B5		5.5E+07 Reb M area/min
B6		2.4E+07 Reb M area/min
B7		3.3E+07 Reb M area/min
B8		3.3E+07 Reb M area/min
B9		2.2E+07 Reb M area/min
B10	6.1%	2.4E+06 Reb M area/min
B11	0.5%	1.8E+05 Reb M area/min
B12	1.0%	7.5E+06 Reb M area/min
B13		4.1E+07 Reb M area/min
B14	0.6%	9.8E+05 Reb M area/min
B15	31.0%	2.1E+07 Reb M area/min
B16	8.2%	3.7E+06 Reb M area/min

Molecule	conversion Reb D to Reb M after 24 h	initial rate
B17		2.3E+07 Reb M area/min
B18	41.0%	2.9E+07 Reb M area/min
B19	1.8%	7.5E+05 Reb M area/min
B20	7.2%	3.3E+06 Reb M area/min
B21	3.4%	1.5E+06 Reb M area/min
B22	0.0%	−4.4E+04 Reb M area/min
B23	29.0%	1.5E+07 Reb M area/min
B24	1.8%	1.9E+06 Reb M area/min
B25		9.4E+06 Reb M area/min
B26	20.0%	8.8E+06 Reb M area/min
B27		5.6E+06 Reb M area/min
B28		2.8E+07 Reb M area/min
B29		5.5E+06 Reb M area/min
B30	0.9%	6.3E+04 Reb M area/min
B31	1.9%	5.0E+05 Reb M area/min
